Source: US20230322953A1 (HARBOUR BIOMED SHANGHAI, published 2023)

T1: human BCMA (human, UniProt Q02223 1-184)
T1 construct: whole, on cells; also called hBCMA; TNFRSF17
T1 sequence (looked up): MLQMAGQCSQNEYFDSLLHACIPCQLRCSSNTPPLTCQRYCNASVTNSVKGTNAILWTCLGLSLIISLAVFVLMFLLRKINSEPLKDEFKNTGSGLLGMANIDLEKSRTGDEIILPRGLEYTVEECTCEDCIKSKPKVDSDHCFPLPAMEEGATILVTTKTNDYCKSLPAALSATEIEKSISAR


Target: T1, human BCMA
Experiment: FACS on NCI-H929 cells

| Binder | Maximum MFI | EC50 [nM] |
| --- | --- | --- |
| PR002002 (bispecific antibody, IgG1, BCMAxCD3, scFv(VL-VH)-Fc-VH (structure 20); CD3 scFv of PR000510, BCMA VH of PR001046; IgG1 knob/hole, AAG) chain 1: QAVVTQEPSLTVSPGGTVTLTCRSSTGAVTTSNYANWVQQKPGQAPRGLIGGTNKRAPWTPARFSGSLLGDKAALTLLGAQPEDEAEYFCALWYSNLWVFGGGTKLTVLGGGQSGQGGSGGGGSEVQLVESGGGLVQPGGSLKLSCAASGFTFNTYAMNWVRQASGKGLEWVGRIRSKYNNYATYYADSVKDRFTISRDDSKSTLYLQMNSLKTEDTAVYYCVRHGNFGNSYVSWFAYWGQGTLVTVSSASEPKSSDKTHTCPPCPAPEAAGGPSVFLFPPKPKDTLMISRTPEVTCVVVDVSHEDPEVKFNWYVDGVEVHNAKTKPREEQYNSTYRVVSVLTVLHQDWLNGKEYKCKVSNKALGAPIEKTISKAKGQPREPQVYTLPPCREEMTKNQVSLWCLVKGFYPSDIAVEWESNGQPENNYKTTPPVLDSDGSFFLYSKLTVDKSRWQQGNVFSCSVMHEALHNHYTQKSLSLSPGK chain 2: EVQLVETGGGLIQPGGSLRLSCAASGFTVSDNYMTWVRQAPGKGLEWVSVIFSGGNTYYADSVKGRFTISRDNAKNTLYLQMNSLRAEDTALYYCARRNYDDTRGTDVFDIWGQGTMVTVSSASEPKSSDKTHTCPPCPAPEAAGGPSVFLFPPKPKDTLMISRTPEVTCVVVDVSHEDPEVKFNWYVDGVEVHNAKTKPREEQYNSTYRVVSVLTVLHQDWLNGKEYKCKVSNKALGAPIEKTISKAKGQPREPQVCTLPPSREEMTKNQVSLSCAVKGFYPSDIAVEWESNGQPENNYKTTPPVLDSDGSFFLVSKLTVDKSRWQQGNVFSCSVMHEALHNHYTQKSLSLSPGK | 4500 | – |
| PR003876 (bispecific antibody, human IgG1, lambda, L234A L235A, BCMAxCD3, Fab-Fc-VH (structure 11); CD3 Fab of PR003886, BCMA VH of PR004571; IgG1 knob/hole, LALA) light: QAVVTQEPSLTVSPGGTVTLTCRSSTGAVTTSNYANWVQQKPGQAPRGLIGGTNKRAPWTPARFSGSLLGDKAALTLLGAQPEDEAEYFCALWYSNLWVFGGGTKLTVLGQPKAAPSVTLFPPSSEELQANKATLVCLISDFYPGAVTVAWKADSSPVKAGVETTTPSKQSNNKYAASSYLSLTPEQWKSHRSYSCQVTHEGSTVEKTVAPTECS heavy: not shown EVQLVETGGGLIQPGGSLRLSCAASGFTVSDSYMTWVRQAPGKGLEWVSVIFSGGKTYYSDSVKGRFTISRDNAKNTLYLQMNSLRAEDTALYYCARRNYDQTIGTDVFDIWGQGTMVTVSSASEPKSSDKTHTCPPCPAPEAAGGPSVFLFPPKPKDTLMISRTPEVTCVVVDVSHEDPEVKFNWYVDGVEVHNAKTKPREEQYNSTYRVVSVLTVLHQDWLNGKEYKCKVSNKALPAPIEKTISKAKGQPREPQVCTLPPSREEMTKNQVSLSCAVKGFYPSDIAVEWESNGQPENNYKTTPPVLDSDGSFFLVSKLTVDKSRWQQGNVFSCSVMHEALHNHYTQKSLSLSPGK | 10900 | 2.3 |
| PR003879 (bispecific antibody, human IgG1, lambda, L234A L235A, BCMAxCD3, Fab-Fc-VH (structure 11); CD3 Fab of PR003886, BCMA VH of PR004574; IgG1 knob/hole, LALA) light: QAVVTQEPSLTVSPGGTVTLTCRSSTGAVTTSNYANWVQQKPGQAPRGLIGGTNKRAPWTPARFSGSLLGDKAALTLLGAQPEDEAEYFCALWYSNLWVFGGGTKLTVLGQPKAAPSVTLFPPSSEELQANKATLVCLISDFYPGAVTVAWKADSSPVKAGVETTTPSKQSNNKYAASSYLSLTPEQWKSHRSYSCQVTHEGSTVEKTVAPTECS heavy: not shown EVQLVETGGGLIQPGGSLRLSCAASGFTVSDAYMTWVRQAPGKGLEWVSVIFSGGRTYYSDSVKGRFTISRDNAKNTLYLQMNSLRAEDTALYYCARRNYDQTRGTDVFDIWGQGTMVTVSSASEPKSSDKTHTCPPCPAPEAAGGPSVFLFPPKPKDTLMISRTPEVTCVVVDVSHEDPEVKFNWYVDGVEVHNAKTKPREEQYNSTYRVVSVLTVLHQDWLNGKEYKCKVSNKALPAPIEKTISKAKGQPREPQVCTLPPSREEMTKNQVSLSCAVKGFYPSDIAVEWESNGQPENNYKTTPPVLDSDGSFFLVSKLTVDKSRWQQGNVFSCSVMHEALHNHYTQKSLSLSPGK | 10800 | 2.1 |
